In paper PMC5177502:

Target: Human recombinant FGF 1 (fibroblast growth factor 1) (human) (UniProt P05230)
Test: native MS

stoichiometry N: 2
Substance: Human recombinant FGF 1 (fibroblast growth factor 1) (from UniProt P05230 16-155) (natural protein)
